Results on five substances are retold here after patent publication US20060246067A1.

A value given as a limit tells only on which side of the number the result lay.

The target in the experiment is T cell Receptor (TcR) on human peripheral blood T lymphocytes. Put plainly: cell-based or functional assay.

As for SMEZ-2 D42C, the P50% (human PBL proliferation, 3H thymidine incorporation) was 10 ng/mL and the Reduction (fold, against SMEZ-2 wild type) came out at 10000 fold.

SMEZ-2 W75L gave a P50% (human PBL proliferation, 3H thymidine incorporation) greater than 10 ng/mL and a Reduction (fold, against SMEZ-2 wild type) greater than 100000 fold.

Consider SMEZ-2 W75L.D42C.K182Q (M1), for which the P50% (human PBL proliferation, 3H thymidine incorporation) is greater than 10 ng/mL and the Reduction (fold, against SMEZ-2 wild type) is greater than 100000 fold.

On to SMEZ-2 W75L.D42C.K182Q.Y18A. (M2), for which the P50% (human PBL proliferation, 3H thymidine incorporation) is greater than 10 ng/mL and the Reduction (fold, against SMEZ-2 wild type) is greater than 100000 fold.

In turn, SMEZ-2 Y18A returned a P50% (human PBL proliferation, 3H thymidine incorporation) greater than 10 ng/mL and a Reduction (fold, against SMEZ-2 wild type) greater than 100000 fold.
